Laboratory results reported in the DeepSol protein solubility set.

Experiment: soluble on expression in E. coli; label from the status in PepcDB or PDB records

Row | Sequence | soluble on expression in E. coli
1 | MLASLHIANYVLIDRLDIDFAPHFSVITGETGAGKSILLGALGLLVGGRADTSAIAPGTDRCIVEGRFTGFVPEMKAVLDRYDLDFDPDECTIRREISSKGKSRAFVNDTPAPLTALRELADFLIDIHSQHKNLLLGDSLFQLNVLDAYSGKPDLYAHYSKAYRVYAERKQKLEDLRKAAAATASEYDYWQFRFEQLDKAGLESGEEARLQEEQAMLTHALDIKRELGHSYSLLSDDERGLLSGLNKVEDALATIESYYPDSASFRQRVRDVRIELADIASDLGRRSDDVSYEPERLNAVTDRLDEILSLLHRYNADSSDALIAIRDDLAERLSRISTDEEEISRLEQEVLAFYKEIEAQASLLTEERIRAASALETSLCESLRKLNMPHVRFVVDIRSTEYGPHGADKVVFLFSANKQMEPEPVSEIASGGEIARLMLCLKALIADKRSLPAIVFDEIDTGVSGEVADRMGEIMAHMGQGMQVLAITHLPQIAARGERHYFVYKDETGERARTFIRELTPEERIREIARMQSGNNLTDVALAAAKELLAR | not soluble
2 | MSLSTYTTGELAKHVGVSVRTIQYYDQRGLLTPMTTAGGRREYTAQDIERLQLILVLKSMGLKLAAIKDILNSPNATDVLQLLLTEQVQRLRQDQAATTTQLKTVIAVQKALAVSGPFPLESIHDMDQLMTNQQREGHHHHHH | not soluble
3 | MSGATEMAVSPDGKEVAFILRGDVYVTSVEYKTTKQVTNTPCQERGIDFAPDGRTLVYASERGGLWQLYTSTIVRKDEKQFTYATELKEERLTNSDIASFNPKYSPDGKEIAFLENRTAIRVINLKTKKVRTVMDAQYQYSYSDGDQWFEWSPDSKWILSEFIGIGGWNNKDIVLLNADGKGEMHNLTESGYSDGNAKWVLGGKAMVWFSDRAGYRSHGSWGAQYDAYIMFFDVDALEHHHHHH | not soluble
4 | MGSDKIHHHHHHMEIPPEILQSLIELGFTKYEVLTYWTLLVYGPSTAKEISIRSGIPYNRVYDTISSLKVRGFVTEIEGNPKVYAAYSPRIAFLRFKKELDEISEKLEKAISEVKREERCRPSIWRSHDFEEAIEMFKETLESSENEVIVVTPSEFFKSIRETLIGILDRGVTLSLYIDKVPDISDFEGRGNFFLRRFTKFNHLIGLADGKVVATIQNVSFMPPSPPSFKSTFKEIIFSQYSLTLEIFKESSLEVEQIMNPQDIRFFAVFHAADFVKRHLPSSTIFSEIVGRNVKTGEVEKLYGKVVGYTLSFREGVNNIQIETEKGIVKVGGMFAVIEDYESTNVRLMLES | not soluble
5 | MPLNTDFFKPSKNKEKFVLVFLKRGYPSHVDLLTKIAEKVKMKSIGYKIPNAEYLERVSDEELRDLYSSALVTLYPIDFEYYGYIPVESMAAGTPVIAFRYSGGPAETIVDGETGWLASDEEEFYRLTIKVYNEGYPEDTSVKSRKRAEEFSIQN | soluble
6 | MSRGDKMLKFEIKARDGAGRIGKLEVNGKKIETPAIMPVVNPKQMVVEPKELEKMGFEIIITNSYIIYKDEELRRKALELGIHRMLDYNGIIEVDSGSFQLMKYGSIEVSNREIIEFQHRIGVDIGTFLDIPTPPDAPREQAVKELEITLSRAREAEEIKEIPMNATIQGSTYTDLRRYAARRLSSMNFEIHPIGGVVPLLESYRFRDVVDIVISSKMALRPDRPVHLFGAGHPIVFALAVAMGVDLFDSASYALYAKDDRYMTPEGTKRLDELDYFPCSCPVCSKYTPQELREMPKEERTRLLALHNLWVIKEEIKRVKQAIKEGELWRLVDERARSHPKLYSAYKRLLEHYTFLEEFEPITKKSALFKISNESLRWPVVRRAKERAKSINERFGELVEHPIFGRVSRYLSLTYPFAQSEAEDDFKIEKPTKEDAIKYVMAIAEYQFGEGASRAFDDAKVELSKTGMPRQVKVNGKRLATVRADDGLLTLGIEGAKRLHRVLPYPRMRVVVNKEAEPFARKGKDVFAKFVIFADPGIRPYDEVLVVNENDELLATGQALLSGREMIVFQYGRAVKVRKGVE | soluble
7 | MGSDKIHHHHHHMAATFLDIAITPDVMDVQHEMGSDSLWQTPRSRRQADRFGDSEAGMIATRDSFYLATVSQSGWPYIQHRGGPPGFLHLLDDITLAMADFGGNRQYITTGNLRGSDRACLFLMDYPRRARLKIYATVEVLAAEDHPQLLAQVAPANYRARIERLFLFHLQAFDWNCPQHITPRYSAQQVAEYSQNLQQRIHDLEQENQRLQQQLARRGE | not soluble
8 | HLQGLSAAVLDLTGLAQKGGTVVSHIRLAPSGTANGPVRLDWQQADAAILCDPVAAVAPDSLGALRRDHTRTTVNTYVAPVSDFTRNPDAPLRADALLAKIRHAAGEHVAALDAHAAAQALFGDSILSNMFMLGHAWQRGDVPLALAALARAIELNGVAVAANRAAFDAGRLAAHE | not soluble
9 | MAKSLLRSGNLDDYQAVGGGGQAVFESALQIRETLRLRKQQAMVDCLAIPQLNDNGDRVDWYSPIEGQAIAWKAADEETRSRALRYLASTFESAAALSRKSLQSGKTALQLFGSLLEKATQFPGENHVFLVNGKPVITFWGFVNLNENTRDDVLDCLRVTEAIPDIPLVEPEPEEKPLVEAAFSQADEPLLTSVIEPPKMPEEPAAPPVIVSEPKPAAPIPVAEAKRARRLPLWSLPVAAVVIAAVATPFFWPSSSVDGASPVRAAPVATAKTDVTPLPELTAHLPLHRAEVTPAPKAAPLPEAPVIIAAIPKDALVMDNTQMKLGTTRFLNGSWRISVDVKDPITGKPPSLRYQIQNNKGIARVVHGDNVVCRAEIFSGLHQTGELMIKSRGNARCTDGSRYPMPEITCKAGVNDVATCTARYGDHAAIPLTFKKIGA | not soluble
10 | MSLKTYALVMAGGRGERLWPLSREDRPKPFLPLFEGKTLLEATLERLAPLVPPERTLLAVRRDQEAVARPYADGIRLLLEPLGRDTAGAVLLGVAEALKEGAERLLVLPADHYVGDDEAYREALATMLEAAEEGFVVALGLRPTRPETEYGYIRLGPREGAWYRGEGFVEKPSYAEALEYIRKGYVWNGGVFAFAPATMAELFRRHLPSHHEALERLLAGASLEEVYAGLPKISIDYGVMEKAERVRVVLGRFPWDDVGNWRALERVFSQDPHENVVLGEGRHVALDTFGCVVYADRGVVATLGVSGLVVAKVGDEVLVVPKDWAREVREVVKRLEAQEEGHHHHHH | soluble
11 | MSLNIAMTGATGYIGKHLSNYLTEKGGHRIIPLGRAMFREGMSGLLVQTLTHCDVIINLAGAPINQRWTPEHKQELFNSRITVTHRIIRALNAVKTKPKLMISASAVGYYPSLVESDEYTQTRGDGFLSDLCYAWEKEAKRCPQPTRLVITRFGVVLSPDGGAMQQMLRPLRATKVAAVIGPGTQPFPWIDIRDLCCAMAFFIENEELRGVFNLVAPQAVSQSTFTRAMGKAYHAWTTEGHHHHHH | not soluble
12 | SDCLIVVDTRAAIRRVNRAALTMLGYDEEQLLGMPVGVIFAWERDKERLRTEGLRCFVESIGSSPAEFTFLSSDERRTPVLLSASPMLGRD | not soluble
13 | MSKVAMVTGGAQGIGRGISEKLAADGFDIAVADLPQQEEQAAETIKLIEAADQKAVFVGLDVTDKANFDSAIDEAAEKLGGFDVLVNNAGIAQIKPLLEVTEEDLKQIYSVNVFSVFFGIQAASRKFDELGVKGKIINAASIAAIQGFPILSAYSTTKFAVRGLTQAAAQELAPKGHTVNAYAPGIVGTGMWEQIDAELSKINGKPIGENFKEYSSSIALGRPSVPEDVAGLVSFLASENSNYVTGQVMLVDGGMLYN | soluble
14 | MKDNRYSPDWPQLALQKKQAVGWVCERCGVQCLKPGEGKGLLKEERYRLRMAVHHCDYDPSNNSPSNLMALCSPCHLHYHQRQRGNVTPGQLSLGFVYRSCLVCAQQLEHHHHHH | not soluble
15 | MTQEEMKHIDPSGNHTISHLCEAWKLSMRYQVKPSTFACYATIIQKHIRPSIGTVEMEEMNNEILSEFILDRQSRGLSANTMRLILFLLKSIIRAGERRGICPAEPLDFFLPKDRGYEMKLLSQDNRRKLLSWLAGCRTNFELGLLLSLSTGIRVGELCGMKWEDVDLEEGVLHIRRTVSRIRNTDQKNTAAKTVLYIGSPKTGTSQREIPLPDFMIPRLKEKKREAGCYLLTGRTGCMEPRGVQRRFKN | not soluble
16 | MSLLERLNQDMKLYMKNREKDKLTVVRMVKASLQNEAIKLKKDSLTEDEELTVLSRELKQRKDSLQEFSNANRLDLVDKVQKELDILEVYLPEQLSEEELRTIVNETIAEVGASSKADMGKVMGAIMPKVKGKADGSLINKLVSSQLS | soluble
17 | MDPLFLLLPYISSVGKEGKFQSVKQMVMDEDYPGCSRLLQCKQGLDSLHHVADEKEVNDQKYHKYNLEKTLEWLKKKVQRTVNALKKGNISVGGGVKSSTFVRVKHEDASEEDYLRYAHGLISEYISEDLSKDLLKHLELPEISSPKEAEPPSKKRKLSDKPVEAGEDYTKFNSADFARKPPKKMTAAQKSLAKADKTGMKSLASFFSPKVKQEKN | not soluble
18 | DNAVGPPASAPPPPSVPVAKALSRTLAPTAEFTGFLAAPETVELRSRVGGTLDAISVPEGRLVSRGQLLFQIDPRPFEVALDTAVAQLRQAEVLARQAQADFDRIQRLVASGAVSRKNADDVTATRNARQAQMQSAKAAVAAARLELSWTRITAPIAGRVDRILVTRGNLVSGGVAGNATLLTTIVSHNPMYVYFDIDEATWLKALRHTRSDKNPPVVNMGLTTDNGLPYQGVLDFMGNQMNRSTGTIRARAVIPDPDGMLSPGLFARISLPIGEPRETVLIDDLAVSADQGKNYVLIVGKENQVEYRPVELGQMVD | not soluble
19 | MMEMITIKPGKITVQANPNMPKEVAELFRKQHYEIVGRHSGVKLCHWLKKSLTEGRFCYKQKFYGIHSHRCLQMTPVLAWCTHNCIFCWRPMENFLGTELPQPWDDPAFIVEESIKAQRKLLIGYKGNPKVDKKKFEEAWNPTHAAISLSGEPMLYPYMGDLVEEFHKRGFTTFIVTNGTIPERLEEMIKEDKLPTQLYVSITAPDIETYNSVNIPMIPDGWERILRFLELMRDLPTRTVVRLTLVKGENMHSPEKYAKLILKARPMFVEAKAYMFVGYSRNRLTINNMPSHQDIREFAEALVKHLPGYHIEDEYEPSRVVLIMRDDVDPQGTGVEGRFIKHLEHHHHHH | not soluble
20 | MKVNTWFGVLELDSNGKTLSSEVFPKDIRELALRSLSLRESRQNLPPEGFDLKTAALECGFTESLSEYYSLLHKVTLETVKLQVSQALTPDQRIIQAVEALDDINETTNSLSERLFEWYGGYFPESGLSGEELAVFISRYGSRENLPPEDPHYLKAKNSMGAKLEAADEVLLKGLAESVCSLYERRKQIEAYIESSMEILAPNLALLAGPMLGARLISIAGSLEKLAAFPSSTIQVIGASKALFKHLRSRAPSPKHGIIYSHPLINTSPWWVRGKVARALAAKLSLAARIDFYSAKRNPSLENELEEKIRKIRAENPRPPQKRQEIRAKPKKKRRKLEHHHHHH | soluble
21 | MGSDKIHHHHHHMTLMKPADVSQRQSTSVLHSSSHSPSQNHLLAALPQVELESFSDHLELVPMPLGEFLYEPGSGLEYVYFPTTCIVSLHYVLSSGATAETAGVGNEGVVGVSLFMGGNTTASSAVVQTAGYGYRLNKKILMREFDRSGLLQRVLLRYTQALMTQMSQTAVCNRHHSLEQQFCRWLLLTLDRMPTNELVMTHELVASMLGVYREGISLAAGKLQQAGVISYRRGHISVLDRAKLELKSCECYQVVKTELDRLLSDGLLADAKFIKTKTDTQTSKTQ | not soluble
22 | MGHHHHHHSHMESVALYSFQATESDELAFNKGDTLKILNMEDDQNWYKAELRGVEGFIPKNYIRVKPHPWYSGRISRQLAEEILMKRNHLGAFLIRESESSPGEFSVSVNYGDQVQHFKVLREASGKYFLWEEKFNSLNELVDFYRTTTIAKKRQIFLRDEEPLLKSPGACFAQAQFDFSAQDPSQLSFRRGDIIEVLERPDPHWWRGRSCGRVGFFPRSYVQPVHL | not soluble
